Assay results reported in patent publication US20160368965A1 (IMMATICS BIOTECHNOLOGIES, published 2016).

B1: LLSDPIPEV (SEQ ID NO: 52) (peptide)
peptide: LLSDPIPEV
B2: VLGVIWGV (SEQ ID NO: 70) (peptide)
peptide: VLGVIWGV
B3: FLTEAALGDA (SEQ ID NO: 38) (peptide)
peptide: FLTEAALGDA
B4: SLQDTEEKSRS (SEQ ID NO: 78) (peptide)
peptide: SLQDTEEKSRS
B5: ALDPAAQAFLL (SEQ ID NO: 4) (peptide)
peptide: ALDPAAQAFLL
B6: LINPNIATV (SEQ ID NO: 25) (peptide)
peptide: LINPNIATV
B7: ALLTGIISKA (SEQ ID NO: 5) (peptide)
peptide: ALLTGIISKA
B8: TLFSEPKFAQV (SEQ ID NO: 64) (peptide)
peptide: TLFSEPKFAQV
B9: ILIGETIKI (SEQ ID NO: 3) (peptide)
peptide: ILIGETIKI
B10: ALSKEIYVI (SEQ ID NO: 83) (peptide)
peptide: ALSKEIYVI
B11: NLIGVTAEL (SEQ ID NO: 56) (peptide)
peptide: NLIGVTAEL
B12: YILPFSEVL (SEQ ID NO: 29) (peptide)
peptide: YILPFSEVL
B13: VLDEFYSSL (SEQ ID NO: 28) (peptide)
peptide: VLDEFYSSL
B14: YLDSMYIML (SEQ ID NO: 31) (peptide)
peptide: YLDSMYIML
B15: YIYKDTIQV (SEQ ID NO: 30) (peptide)
peptide: YIYKDTIQV
B16: RLFPGSSFL (SEQ ID NO: 77) (peptide)
peptide: RLFPGSSFL
B17: ALVDIVRSL (SEQ ID NO: 7) (peptide)
peptide: ALVDIVRSL
B18: ILSDMRSQYEV (SEQ ID NO: 42) (peptide)
peptide: ILSDMRSQYEV
B19: FLEDDDIAAV (SEQ ID NO: 34) (peptide)
peptide: FLEDDDIAAV
B20: VVYEGQLISI (SEQ ID NO: 79) (peptide)
peptide: VVYEGQLISI
B21: SVFPGARLL (SEQ ID NO: 62) (peptide)
peptide: SVFPGARLL
B22: GLAPQIHDL (SEQ ID NO: 40) (peptide)
peptide: GLAPQIHDL
B23: VMVDGKPVNL (SEQ ID NO: 73) (peptide)
peptide: VMVDGKPVNL
B24: GLLAGNEKLTM (SEQ ID NO: 41) (peptide)
peptide: GLLAGNEKLTM
B25: LLPGTEYVVSV (SEQ ID NO: 80) (peptide)
peptide: LLPGTEYVVSV
B26: ILYSDDGQKWTV (SEQ ID NO: 45) (peptide)
peptide: ILYSDDGQKWTV
B27: SVTGIIVGV (SEQ ID NO: 63) (peptide)
peptide: SVTGIIVGV
B28: TLNEKLTAL (SEQ ID NO: 65) (peptide)
peptide: TLNEKLTAL
B29: ALYTGSALDFV (SEQ ID NO: 8) (peptide)
peptide: ALYTGSALDFV
B30: ALIAEGIAL (SEQ ID NO: 82) (peptide)
peptide: ALIAEGIAL
B31: TMVEHNYYV (SEQ ID NO: 46) (peptide)
peptide: TMVEHNYYV
B32: YVDDGLISL (SEQ ID NO: 32) (peptide)
peptide: YVDDGLISL
B33: ILAQVGFSV (SEQ ID NO: 44) (peptide)
peptide: ILAQVGFSV
B34: RLSELGITQA (SEQ ID NO: 57) (peptide)
peptide: RLSELGITQA
B35: VLLPEGGITAI (SEQ ID NO: 71) (peptide)
peptide: VLLPEGGITAI
B36: LLFGSDGYYV (SEQ ID NO: 50) (peptide)
peptide: LLFGSDGYYV
B37: SLWEDYPHV (SEQ ID NO: 60) (peptide)
peptide: SLWEDYPHV
B38: ILSTEIFGV (SEQ ID NO: 22) (peptide)
peptide: ILSTEIFGV
B39: FLGDLSHLL (SEQ ID NO: 36) (peptide)
peptide: FLGDLSHLL
B40: NLAPAPLNA (SEQ ID NO: 55) (peptide)
peptide: NLAPAPLNA
B41: LLDENGVLKL (SEQ ID NO: 48) (peptide)
peptide: LLDENGVLKL
B42: VLFSGSLRL (SEQ ID NO: 69) (peptide)
peptide: VLFSGSLRL
B43: FLNPDEVHAI (SEQ ID NO: 37) (peptide)
peptide: FLNPDEVHAI
B44: FILPIGATV (SEQ ID NO: 84) (peptide)
peptide: FILPIGATV
B45: VVYDDSTGLIRL (SEQ ID NO: 81) (peptide)
peptide: VVYDDSTGLIRL
B46: SLSESFFMV (SEQ ID NO: 59) (peptide)
peptide: SLSESFFMV
B47: GLVDGRDLVIV (SEQ ID NO: 21) (peptide)
peptide: GLVDGRDLVIV
B48: FLTPSIFII (SEQ ID NO: 39) (peptide)
peptide: FLTPSIFII
B49: VMASPGGLSAV (SEQ ID NO: 72) (peptide)
peptide: VMASPGGLSAV
B50: LLWDPSTGKQV (SEQ ID NO: 53) (peptide)
peptide: LLWDPSTGKQV
B51: KLDSSGGAVQL (SEQ ID NO: 23) (peptide)
peptide: KLDSSGGAVQL
B52: VLFDVTGQV (SEQ ID NO: 68) (peptide)
peptide: VLFDVTGQV
B53: FLFPSQYVDV (SEQ ID NO: 35) (peptide)
peptide: FLFPSQYVDV
B54: LLDGFPRTV (SEQ ID NO: 49) (peptide)
peptide: LLDGFPRTV
B55: FLSDGTIISV (SEQ ID NO: 85) (peptide)
peptide: FLSDGTIISV
B56: HLGVKVFSV (SEQ ID NO: 43) (peptide)
peptide: HLGVKVFSV
B57: LTQPGPIASA (SEQ ID NO: 54) (peptide)
peptide: LTQPGPIASA
B58: LIYKDLVSV (SEQ ID NO: 47) (peptide)
peptide: LIYKDLVSV
B59: SLYTALTEA (SEQ ID NO: 26) (peptide)
peptide: SLYTALTEA
B60: VIWGTDVNV (SEQ ID NO: 67) (peptide)
peptide: VIWGTDVNV
B61: SMYDGLLQA (SEQ ID NO: 61) (peptide)
peptide: SMYDGLLQA
B62: KLSENAGIQSL (SEQ ID NO: 24) (peptide)
peptide: KLSENAGIQSL
B63: ALTGIPLPLI (SEQ ID NO: 6) (peptide)
peptide: ALTGIPLPLI
B64: LLGPAGARA (SEQ ID NO: 51) (peptide)
peptide: LLGPAGARA
B65: RQYPWGVVQV (SEQ ID NO: 58) (peptide)
peptide: RQYPWGVVQV
B66: TLLAHPVTL (SEQ ID NO: 27) (peptide)
peptide: TLLAHPVTL
B67: YIDKDLEYV (SEQ ID NO: 74) (peptide)
peptide: YIDKDLEYV

molecular target: T1, HLA-A*02:01 (human); test: UV-ligand exchange, anti-β2m ELISA; grade of peptide exchange yield
T1 construct: the tested peptide takes its place; also called peptide-receptive MHC molecules; MHC class I
From the text: Candidate peptides for T cell based therapies according to the present invention were further tested for their MHC binding capacity (affinity). The individual peptide-MHC complexes were produced by UV-ligand exchange, where a UV-sensitive peptide is cleaved upon UV-irradiation, and exchanged with the peptide of interest as analyzed. Only peptide candidates that can effectively bind and stabilize the peptide-receptive MHC molecules prevent dissociation of the MHC complexes. To determine the yield of the exchange reaction, an ELISA was performed based on the detection of the light chain (β2m) of stabilized MHC complexes. The assay was performed as generally described in Rodenko et al. (Rodenko et al., 2006).
96 well MAXISorp plates (NUNC) were coated over night with 2 ug/ml streptavidin in PBS at room temperature, washed 4× and blocked for 1h at 37° C. in 2% BSA containing blocking buffer. Refolded HLA-A*02:01/MLA-001 monomers served as standards, covering the range of 15-500 ng/ml. Peptide-MHC monomers of the UV-exchange reaction were diluted 100 fold in blocking buffer. Samples were incubated for 1 h at 37° C., washed four times, incubated with 2 ug/ml HRP conjugated anti-β2m for 1h at 37° C., washed again and detected with TMB solution that is stopped with […]. Absorption was measured at 450 nm. Candidate peptides that show a high exchange yield (preferably higher than 50%, most preferred higher than 75%) are generally preferred for a generation and production of antibodies or fragments thereof, and/or T cell receptors or fragments thereof, as they show sufficient avidity to the MHC molecules and prevent dissociation of the MHC complexes.

peptide exchange yield [%] | Binder
50 to 75 | B1
≥ 75 | B2
50 to 75 | B3
50 to 75 | B4
50 to 75 | B5
20 to 50 | B6
50 to 75 | B7
≥ 75 | B8
50 to 75 | B9
50 to 75 | B10
20 to 50 | B11
≥ 75 | B12
50 to 75 | B13
50 to 75 | B14
20 to 50 | B15
≥ 75 | B16
50 to 75 | B17
50 to 75 | B18
20 to 50 | B19
50 to 75 | B20
10 to 20 | B21
20 to 50 | B22
≥ 75 | B23

peptide exchange yield [%] | Binder
20 to 50 | B24
50 to 75 | B25
50 to 75 | B26
≥ 75 | B27
50 to 75 | B28
50 to 75 | B29
50 to 75 | B30
50 to 75 | B31
20 to 50 | B32
50 to 75 | B33
50 to 75 | B34
50 to 75 | B35
50 to 75 | B36
≥ 75 | B37
50 to 75 | B38
20 to 50 | B39
20 to 50 | B40
50 to 75 | B41
50 to 75 | B42
20 to 50 | B43
≥ 75 | B44
50 to 75 | B45
50 to 75 | B46

peptide exchange yield [%] | Binder
50 to 75 | B47
20 to 50 | B48
50 to 75 | B49
50 to 75 | B50
20 to 50 | B51
50 to 75 | B52
50 to 75 | B53
20 to 50 | B54
≥ 75 | B55
20 to 50 | B56
50 to 75 | B57
50 to 75 | B58
50 to 75 | B59
≥ 75 | B60
20 to 50 | B61
20 to 50 | B62
50 to 75 | B63
20 to 50 | B64
20 to 50 | B65
50 to 75 | B66
50 to 75 | B67
